Laboratory results taken from US20170298119A1 (VISTERRA, published 2017).
Substitutions are numbered along the chain they refer to. Where two headings read alike, the source gives them in different places.

B1: FcMut186 (antibody)
chain: ASTKGPSVFPLAPSSKSTSGGTAALGCLVKDYFPEPVTVSWNSGALTSGVHTFPAVLQSSGLYSLSSVVTVPSSSLGTQTYICNVNHKPSNTKVDKKVEPKSCDKTHTCPPCPAPELLGGPSVFLFPPKPKDTLMISRDPEVTCVVVDVSHEDPEVKFNWYVDGVEVHNAKTKPREEQYNSTYRVVSVLRVLHVDWLNGKEYKCKVSNKALPAPIEKTISKAKGQPREPQVYTLPPSRDELTKNQVSLTCLVKGFYPSDIVVEWESNGQPENNYKTTPPVLDSDGSFFLYSKLTVDKSRWQQGNVFSCSVMHEALHNHYTQKSLSLSPGK
B2: FcMut229 (antibody)
chain: B1 chain with H168D
B3: FcMut171 (antibody)
chain: B1 chain with N169D, V261A
B4: ZV-67 (antibody, V domains shown)
VH: QVQLQQSGTGLARPGASVKLSCKASGYTFTSYGISWVTQRAGQGLEWIGVIYPRSGNTYYNEKFRGKATLTADKSSSSAYMELRGLTAEDSAVYFCARENYGSVYWGQGTTLTVSS
VL: DIVMTQSQKFMSTSVGDRVSITCKASQNVGTAVAWYQQKPGQSPKLLIYSASNRYTGVPDRFTGSGSGTDFTLTISNMQSEDLADYFCQQFSSYPYTFGGGTKLEIK
B5: ZV-54 (antibody, V domains shown)
VH: B4 VH with T9V, A16T, T28S, S31T, A41P, G56N, K63R, M81L
VL: B4 VL with S20T, N28S, Q37H, S76T, N77Y, S93N, Y96F
notes: also called ZWT; Rec54

Experiments:
[1] = target: T1, recombinant FcRn protein (Homo sapiens (Human), UniProt P55899 24-297; P61769 21-119); test: BLI (Octet): antibody on anti-CH1 biosensors, recombinant FcRn at pH 6.0; fold change against wild type Motavizumab
T1 construct: also called neonatal Fc receptor; copies: 1 + 1
T1 sequence (P55899 24-297 limits assumed, chain 1 of 2): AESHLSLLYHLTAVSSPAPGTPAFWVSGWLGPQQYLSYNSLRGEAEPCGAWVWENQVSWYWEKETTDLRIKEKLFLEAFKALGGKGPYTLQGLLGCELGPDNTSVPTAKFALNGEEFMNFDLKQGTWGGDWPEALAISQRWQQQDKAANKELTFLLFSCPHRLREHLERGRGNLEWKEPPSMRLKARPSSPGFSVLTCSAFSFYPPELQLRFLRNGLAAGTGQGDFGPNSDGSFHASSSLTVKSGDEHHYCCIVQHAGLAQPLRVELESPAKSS
T1 sequence (P61769 21-119 limits assumed, chain 2 of 2): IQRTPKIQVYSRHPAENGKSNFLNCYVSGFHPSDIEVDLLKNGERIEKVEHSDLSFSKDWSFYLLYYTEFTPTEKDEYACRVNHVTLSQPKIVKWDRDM

[2] = target: T2, wild type ZIKV EDIII displayed on yeast (yeast; Zika virus); test: yeast display of wild type ZIKV EDIII, flow cytometry (Alexa-647 MFI) over hybridoma supernatant dilutions; KD from the 50% maximal binding dilution and the Octet-quantified supernatant concentration
T2 construct: also called WT EDIII
T2 sequence (P32781 19-87): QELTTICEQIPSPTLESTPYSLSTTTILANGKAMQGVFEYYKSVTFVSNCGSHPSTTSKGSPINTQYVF

[3] = target: T2, wild type ZIKV EDIII displayed on yeast
[4] = target: T3, DENV EDIII protein (dengue virus, UniProt P17763 573-679); test: ELISA of Example 7 on coated DENV EDIII, where p-1318 says 'minimal cross-reactivity with the DENV EDIII protein'
T3 construct: domain: EDIII; also called EDIII-DV1; dengue virus E protein domain III
T3 sequence (P17763 573-679 limits assumed): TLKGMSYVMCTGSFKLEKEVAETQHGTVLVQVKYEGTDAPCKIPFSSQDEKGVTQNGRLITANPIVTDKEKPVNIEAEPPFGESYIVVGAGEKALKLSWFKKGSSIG

Binder	Kd (fold increase) [1] [fold]	koff (fold decrease) [1] [fold]	kon (fold increase) [1] [fold]	Kd [2] [pM]	Kd [3] [pM]	binding result [4]
B1	10.3	3.5	2.7	–	–	–
B2	5.6	4.3	1.1	–	–	–
B3	8.2	3.5	2	–	–	–
B4	–	–	–	650	–	–
B5	–	–	–	–	740	no binding
